Measured values as given in IntAct's records for PubMed 22918830.

B1: Histone deacetylase 3 (Homo sapiens), O15379 (parent)
chain: MAKTVAYFYDPDVGNFHYGAGHPMKPHRLALTHSLVLHYGLYKKMIVFKPYQASQHDMCRFHSEDYIDFLQRVSPTNMQGFTKSLNAFNVGDDCPVFPGLFEFCSRYTGASLQGATQLNNKICDIAINWAGGLHHAKKFEASGFCYVNDIVIGILELLKYHPRVLYIDIDIHHGDGVQEAFYLTDRVMTVSFHKYGNYFFPGTGDMYEVGAESGRYYCLNVPLRDGIDDQSYKHLFQPVINQVVDFYQPTCIVLQCGADSLGCDRLGCFNLSIRGHGECVEYVKSFNIPLLVLGGGGYTVRNVARCWTYETSLLVEEAISEELPYSEYFEYFAPDFTLHPDVSTRIENQNSRQYLDQIRQTIFENLKMLNHAPSVQIHDVPADLLTYDRTDEADAEERGPEENYSRPEAPNEFYDGDHDNDKESDVEI

Variants of: B1
Conditions: with hdac1_human HDAC1, Q13547
Chain of hdac1_human HDAC1, Q13547 (Q13547 whole entry): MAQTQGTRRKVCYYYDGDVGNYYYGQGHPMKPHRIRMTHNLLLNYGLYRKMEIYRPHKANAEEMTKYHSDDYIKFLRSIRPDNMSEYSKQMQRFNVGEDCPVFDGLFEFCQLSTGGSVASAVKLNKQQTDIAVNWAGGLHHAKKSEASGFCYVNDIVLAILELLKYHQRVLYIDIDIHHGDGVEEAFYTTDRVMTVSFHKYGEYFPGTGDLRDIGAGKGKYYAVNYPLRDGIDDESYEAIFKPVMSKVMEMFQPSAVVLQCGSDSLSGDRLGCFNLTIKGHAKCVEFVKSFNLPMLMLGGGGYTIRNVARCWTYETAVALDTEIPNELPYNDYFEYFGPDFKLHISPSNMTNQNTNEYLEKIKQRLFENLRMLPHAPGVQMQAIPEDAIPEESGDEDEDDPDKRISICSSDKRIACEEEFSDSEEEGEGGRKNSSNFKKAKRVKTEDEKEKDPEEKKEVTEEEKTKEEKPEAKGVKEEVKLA

Row | effect of a mutation on the interaction | Variant
1 | with no effect | MAKTVAYFYDPDVGNFHYGAGHPMKPHRLALTHSLVLHYGLYKKMIVFKPYQASQHDMCRFHSEDYIDFLQRVSPTNMQGFTKSLNAFNVGDDCPVFPGLFEFCSRYTGASLQGATQLNNKICDIAINWAGGLQHAKKFEASGFCYVNDIVIGILELLKYHPRVLYIDIDIHHGDGVQEAFYLTDRVMTVSFHKYGNYFFPGTGDMYEVGAESGRYYCLNVPLRDGIDDQSYKHLFQPVINQVVDFYQPTCIVLQCGADSLGCDRLGCFNLSIRGHGECVEYVKSFNIPLLVLGGGGYTVRNVARCWTYETSLLVEEAISEELPYSEYFEYFAPDFTLHPDVSTRIENQNSRQYLDQIRQTIFENLKMLNHAPSVQIHDVPADLLTYDRTDEADAEERGPEENYSRPEAPNEFYDGDHDNDKESDVEI [H134Q]
